Assay results as given in the supplement of paper PMC12042874.
± gives the uncertainty stated by the source.

Assay: amyloid nucleation score (Sup35N fusion, yeast selection) (log enrichment); library NNK2; higher = more nucleation; inactive = no reads after selection
Procedure, shortened: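 The nucleation score equals the log enrichment of output over input reads from DiMSum, centred on the mode score of non-aggregating sequences. It was computed only for sequences with 100 or more input reads. The reads came from Illumina sequencing of plasmid inserts from psi-negative yeast expressing Sup35N fused to peptides of 20 random codons, induced with 100 μM copper sulfate for 24 hours and grown 7 days at 30°C without adenine and uracil.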

RVYMRISFSLSLLIAMSNLI and ALTFTGV are within error of each other in amyloid nucleation score: -0.315 ± 0.64 for the first, 0.286 ± 0.41 for the second.

First: VFELFAMCSVSKCCGVSSVT
Second: WIVRFSGCCDVGWTSGVRSY
The amyloid nucleation score of the first is lower: 1.46 ± 0.4 for the first, 6.17 ± 0.075 for the second.

First: LMLLYIRSKYGEFVWIPKVH
Second: ICFTCQYFNKYPGRS
The amyloid nucleation score of the first is lower: -0.021 ± 0.54 for the first, 4.31 ± 0.09 for the second.

DFSTLAPLKLVMHI and SCRNCSQSVSLGGSSKPRQV are within error of each other in amyloid nucleation score: -0.267 ± 0.54 for the first, 0.455 ± 0.4 for the second.

SCFSIFMLIPSSATAIFSQI and SFSRYF are within error of each other in amyloid nucleation score: -1.27 ± 1 for the first, -1.58 ± 0.75 for the second.

Going from LVCYLMTMNSNGARSRGVPF to LSEFDHYDWVSSSTLFGFCC, the amyloid nucleation score falls from 5.99 ± 0.063 to -1.13 ± 1.1.

Going from VFGACGTM to IRLTRY, the amyloid nucleation score falls from 0.606 ± 0.32 to -0.338 ± 0.35.

DLVHFLRNRWCGIR and YNPLLIV are within error of each other in amyloid nucleation score: -0.73 ± 0.55 for the first, 0.082 ± 0.56 for the second.

Compared with VHQFADFNKIMNGLDDLLLK, HKCGTPFAIHIYRSKQLPGV is lower in amyloid nucleation score: 2.65 ± 0.081 for the first, -0.305 ± 1 for the second.

First: SVNWTRLRECKPWMQVFNRG
Second: LFGLNFNLSNNLFMFFSYTQ
The amyloid nucleation score of the first is lower: 0.208 ± 0.56 for the first, 3.46 ± 0.082 for the second.

Going from TDYLGLWPWVSSSLGRVVTW to HNLCGYLLVSVAWVLWWIRR, the amyloid nucleation score rises from 1.22 ± 0.45 to 2.61 ± 0.11.

TSYIVDTSSLFITRASTG and IIVSDSPTLQRS are within error of each other in amyloid nucleation score: 0.336 ± 0.44 for the first, 0.163 ± 0.63 for the second.

Compared with AVRYSLFF, PSGFVVLGSLCGMIFVRVTK is lower in amyloid nucleation score: 5.09 ± 0.054 for the first, -0.974 ± 0.49 for the second.

MSLILRSPLKTWLPLAHTQG and VTDYYYLCKFKSRVP are within error of each other in amyloid nucleation score: 0.187 ± 0.42 for the first, -0.799 ± 0.78 for the second.

First: NVVMHRENVYFCLVNLHWTD
Second: WGSISNIFYLLRVLYCLSMS
The amyloid nucleation score of the first is higher: 7.837 ± 0.04 for the first, 1.79 ± 0.26 for the second.

Compared with KRFYMT, IIFVVVASQKVHWFVRVDGD is lower in amyloid nucleation score: 1.31 ± 0.081 for the first, -0.658 ± 1 for the second.

MMNTKFINWDKMLDIGYRAD and LNTTLLTRPVLSSYRGSTAE are within error of each other in amyloid nucleation score: 0.877 ± 0.8 for the first, 1.23 ± 0.45 for the second.

Going from MLCCLCMMVCDR to VFQSDECVFLCSN, the amyloid nucleation score falls from 8.673 ± 0.032 to -0.561 ± 0.55.

First: KKDSSWFRLNDKKVVSSHKR
Second: GNRFPRPSPQGIIYKLLLFR
The amyloid nucleation score of the first is lower: -0.215 ± 0.2 for the first, 2.92 ± 0.11 for the second.

Going from MTGNVYKMIILIYNFFRRS to SYHGVRLFDIHIGSLKFQQ, the amyloid nucleation score rises from 2.7 ± 0.069 to 7.549 ± 0.054.

SCYRFSRSRS and SHGELEVAMPDTGNI are within error of each other in amyloid nucleation score: -0.359 ± 0.49 for the first, -0.378 ± 0.32 for the second.

Compared with LSFPHVLYFETCPCMARVVA, RVFFTVCGMHTGSSKKLAGL is higher in amyloid nucleation score: -0.081 ± 1.1 for the first, 1.23 ± 0.21 for the second.

Going from SYPACRNRAVVRARGVVNLW to VRLCKYENSSWLSFRFQVQG, the amyloid nucleation score falls from 2.7 ± 0.18 to 0.56 ± 0.39.

Compared with DNVLYHPDGFGMISALTGVV, FFMYHAVL is higher in amyloid nucleation score: -0.753 ± 0.45 for the first, 1.02 ± 0.34 for the second.

Compared with GSPWGSHGRHGLKHTKALKA, LCYMGRVA is lower in amyloid nucleation score: 1.1 ± 0.25 for the first, 0.224 ± 0.34 for the second.

Compared with RYRLISTTFGVAHSFEPPRL, AYSDNTFRQCSISVL is lower in amyloid nucleation score: 4.26 ± 0.059 for the first, 0.218 ± 0.8 for the second.

DSWSIMWSLC and VAPTLYLVCRIIRPNPNSYY are within error of each other in amyloid nucleation score: -0.272 ± 1.1 for the first, -0.228 ± 0.53 for the second.

Compared with LYMILNGYTLGSCFTVRDSF, KMKFKKENFC is lower in amyloid nucleation score: 4.99 ± 0.078 for the first, -0.858 ± 1 for the second.

Compared with LTPNCGKVGGRMRGRILSGV, DSGEPWILMFLDGYLSAMRL is lower in amyloid nucleation score: 0.787 ± 0.3 for the first, -0.513 ± 0.61 for the second.

Compared with IPASDRYKVFRLWHQFRLVG, ACTVWIMLRDSCWKARDRSG is higher in amyloid nucleation score: -0.001 ± 0.56 for the first, 2.95 ± 0.082 for the second.

NKYYLSNLMTCLAQKLSSSG and VIFLVDNCCMACDSLEPRTI are within error of each other in amyloid nucleation score: 0.053 ± 1.1 for the first, 0.513 ± 0.25 for the second.

YKWVVPDWSWVLEMALSLPT and MPGYYPMGSL are within error of each other in amyloid nucleation score: 0.346 ± 0.5 for the first, 0.427 ± 0.74 for the second.

With NTEKSIVVRDMIKDSYPFSV the amyloid nucleation score was “inactive”.
With AVLSITMKGVVWKGLSNLCC the amyloid nucleation score was “inactive”.
For QFSLMRAIFMWASPRSWLLD, the amyloid nucleation score was “inactive”.
In the case of DSGFFWCV, the amyloid nucleation score is reported as “inactive”.
With QSFFLN the amyloid nucleation score was “inactive”.
With FVFLVYYFSEFIH the amyloid nucleation score was “inactive”.
